Source: patent US20230303690A1 (published 2023)
Like-named read-outs stand apart in the source and are kept apart here. One block for each binder: values may come before it.

What was measured:
[1] = target: T1, LAG3 Protein, Human, Recombinant (His Tag) (Sino Biological Catalog No. 16498-H08H) (human, UniProt P18627 23-450); experiment: SPR (Biacore), sdAb captured by anti-human Fc, LAG3-His analyte
T1 construct: Bought protein; also called hLAG3-His; LAG3-His; not shown: His tag
T1 sequence (looked up): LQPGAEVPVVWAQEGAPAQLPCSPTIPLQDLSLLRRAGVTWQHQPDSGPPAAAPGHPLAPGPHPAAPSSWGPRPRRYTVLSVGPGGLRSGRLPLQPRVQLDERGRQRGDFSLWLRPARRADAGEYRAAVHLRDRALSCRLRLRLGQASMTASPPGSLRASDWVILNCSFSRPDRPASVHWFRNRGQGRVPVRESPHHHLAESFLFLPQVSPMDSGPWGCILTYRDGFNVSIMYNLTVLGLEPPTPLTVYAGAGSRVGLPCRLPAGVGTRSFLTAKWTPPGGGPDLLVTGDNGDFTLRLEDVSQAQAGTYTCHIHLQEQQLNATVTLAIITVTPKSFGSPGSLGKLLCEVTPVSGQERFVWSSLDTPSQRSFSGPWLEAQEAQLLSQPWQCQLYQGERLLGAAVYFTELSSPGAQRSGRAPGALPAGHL
Method: The binding of the single domain antibodies to recombinant human LAG3 protein (rhLAG3) was examined by Biacore™ assay. […] The coating was carried out according to the manufacturer’s instructions accompanying the kit (Catalog No. BR-1008-39, GE). […] The chip surface was regenerated after each cycle with 25 mM NaOH followed by HBS-EP wash provided in the kit.

[2] = target: T1, LAG3 Protein, Human, Recombinant (His …); experiment: ELISA, coated hLAG3-His
Method: (§1) Plates were coated with 100 µL per well of Coating Solution, and then covered, and incubated overnight (12-18 hours) at 2-8° C. The wells were aspirated and washed 1 time with >200 µL of Wash buffer per well, inverted and tapped on absorbent paper to remove excess liquid. The plates were blocked with 200 µL per well with Blocking buffer (1×PBS+4% milk) for 1 hour at room temperature, aspirated, inverted, and tapped on absorbent paper to remove excess liquid. Standards and sample dilutions were prepared in Blocking buffer. 100 µL of standards (in duplicate) and samples were pipetted into designated wells. After incubation for 1 hour at room temperature with gentle continual shaking (~500 rpm), the wells were aspirate and washed 3 times with >200 µL of Wash buffer per well, inverted and tapped on absorbent paper to remove excess liquid.
(§2) The primary antibody solution was diluted with Blocking buffer. See Table 14 for recommended primary antibody dilution. 100 µL of the primary antibody solution was added into each well and incubated for 2 hours at room temperature with gentle continual shaking (~500 rpm). The wells were aspirated and washed 3 times with >200 µL of Wash buffer per well, inverted and tapped on absorbent paper to remove excess liquid. The working solution of secondary antibody was made with Blocking buffer by diluting the secondary antibody by 2,500 times. 100 µL of secondary antibody working solution was added into each well and incubated for 30 minutes at room temperature. The wells were aspirated and washed 5 times with >200 µL of Wash buffer per well, inverted and tapped on absorbent paper to remove excess liquid. 100 µL of TMB substrate solution (Biopanda, TMB-S-004) was added to each well and incubated for 30 minutes at room temperature. 100 µL of Stop solution (Solarbio, C1058) was added to each well.

[3] = target: T1, LAG3 Protein, Human, Recombinant (His …); experiment: ELISA, coated hLAG3-His; remark: listed apart in the source
Method: as §1
as §2, with “well. Absorbance at 450 nm was measured within 30 minutes of adding Stop solution. Results were calculated using a log-log or 4-parameter curve fit.” for “well.”

[4] = target: T2, human LAG3 expressed on cells (human, UniProt P18627 23-525); experiment: FACS, 293T-hLAG3 cells
T2 construct: whole, on cells
T2 sequence (looked up): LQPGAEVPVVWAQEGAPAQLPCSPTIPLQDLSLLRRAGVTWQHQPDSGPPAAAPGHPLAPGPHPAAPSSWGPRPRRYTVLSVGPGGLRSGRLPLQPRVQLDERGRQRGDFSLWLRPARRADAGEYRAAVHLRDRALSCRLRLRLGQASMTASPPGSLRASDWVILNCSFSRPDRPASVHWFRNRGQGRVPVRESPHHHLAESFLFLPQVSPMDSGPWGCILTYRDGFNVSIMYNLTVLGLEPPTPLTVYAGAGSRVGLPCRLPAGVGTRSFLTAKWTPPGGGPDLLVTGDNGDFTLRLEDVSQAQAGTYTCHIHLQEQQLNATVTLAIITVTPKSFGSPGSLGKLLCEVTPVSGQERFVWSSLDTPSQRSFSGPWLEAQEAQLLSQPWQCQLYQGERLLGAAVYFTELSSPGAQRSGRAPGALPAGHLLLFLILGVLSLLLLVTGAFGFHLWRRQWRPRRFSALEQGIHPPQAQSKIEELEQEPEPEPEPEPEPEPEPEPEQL
Method: 5) The prepared antibody samples were added to the 96-well plate according to the platemap, the cells were resuspended and incubate at 4° C. for 1 hour.
7) 3% BSA/1xPBS was used to dilute Goat polyclonal Secondary Antibody to Human IgG-Fc (DyLight® 650) to the desired concentration (1:200), in which the cells were resuspended and incubated at 4° C. for 1 hour.
9) The cells were resuspended in 200 µl of 3% BSA/1xPBS, and performed flow cytometric testing by Shsti Biotech Inc.

Kd [1]: 0.347 nM
koff [1]: 0.000277 s⁻¹
kon [1]: 797000 M⁻¹ s⁻¹
B1: sdAb No. 8 (VHH)
VHH: QLQLVESGGGLVQPGGSLRLSCAASGFTLDYYAIGWFRQAPGKEREGVSCISSSDGSTYYADSVKGRFTISRDNAKNTVYLQMNSLKPEDTAIYYCARDSLSGSGYGCRGPYDYWGQGTQVTVSS
notes: Fc of the tested form not described; not shown: Fc part implied by anti-human Fc capture

EC50 [2]: 1.19 nM
B2: sdAb No. 17-H5 (VHH)
VHH: QLQLVESGGGLVQPGGSLRLSCAASGLTLDAYAIGWFRQAPGKEREGLACISGSDASTHYLDSVKGRFTISRDNGKNTMALQMNSLQFGDTAIYYCAARRGSCSGSWTYWGQGTQVTVSS
notes: Modified sdAb No. 17 (CDR1 and CDR2 DG to DA); not shown: Fc part implied by anti-human IgG1 Fc detection

EC50 [3]: 2 nM
OD450 at 0.061 nM [3]: 0.038
OD450 at 0.1829 nM [3]: 0.057
OD450 at 0.5487 nM [3]: 0.132
OD450 at 1.6461 nM [3]: 0.648
OD450 at 4.9383 nM [3]: 1.25
OD450 at 14.815 nM [3]: 1.41
OD450 at 44.445 nM [3]: 1.33
OD450 at 133.335 nM [3]: 1.66
EC50 [4]: 0.6 nM
FACS signal at 0.061 nM [4]: 191
FACS signal at 0.1829 nM [4]: 487
FACS signal at 0.5487 nM [4]: 1110
FACS signal at 1.6461 nM [4]: 1690
FACS signal at 4.9383 nM [4]: 2030
FACS signal at 14.815 nM [4]: 2210
FACS signal at 44.445 nM [4]: 2480
FACS signal at 133.335 nM [4]: 2380
B3: sdAb No. 25-B7 (VHH)
VHH: QLQLVESGGGLVKPGGSLRLSCAASGSIESFSFMGWYRQAPGKQRELVAGFTGAASLSFSTYTDAVKGRFTISRDNAKNSVYLQMNSLRAEDTAVYFCNVDPWSQSWPGRYWGQGTTVTVSS
notes: Humanized sdAb No. 25; not shown: Fc part implied by anti-human IgG Fc detection
